Test results taken from paper PMC9363500 (Communications Biology, 2022).
Each block holds one molecule with its values, some of them ahead of it.

T1: 6×His-FAK KFL_(776–841) (human, UniProt Q05397 776-841, fluorescent label from the NanoTemper His-tag labelling kit (MST, fluorescence anisotropy))
T1 chain: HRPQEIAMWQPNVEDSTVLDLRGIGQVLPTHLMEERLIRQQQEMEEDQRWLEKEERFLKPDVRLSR

T2: FAK KFL 776-841 (Homo sapiens, UniProt Q05397)
T2 chain: T1 chain

B1: MBP–FAK KFL_(776–841) (domain or fragment, human, UniProt Q05397 776-841, looked up)
chain: T1 chain
notes: not shown: MBP, N-terminal, kept
B2: FAK KFL 776-841 (protein)
chain: T1 chain
modifications: not fully specified
B3: 6×His-FAK KFL_(776–841) (domain or fragment, human, UniProt Q05397 776-841, looked up)
chain: {6×His}-HRPQEIAMWQPNVEDSTVLDLRGIGQVLPTHLMEERLIRQQQEMEEDQRWLEKEERFLKPDVRLSR
modifications: also: fluorescent label on His-tag
notes: source: E. coli, purified (nickel column, Superdex 75 SEC); not shown: His6, N-terminal, kept

Tests used:
[1] = biological target: 6×His–PYK2 KFL_(728–839) (human) (UniProt Q14289); assay: ITC; 25 °C; 20 mM HEPES pH 7.5, 150 mM NaCl, 2 mM DTT, 1 mM EGTA; CaM (300 µM) injected into PYK2 KFL728–839 (30 µM)
[2] = biological target: 6×His–PYK2 KFL_(728–839) (human) (UniProt Q14289); assay: ITC; 25 °C; 20 mM HEPES pH 7.5, 150 mM NaCl, 2 mM DTT, 5 mM Ca2+; CaM (300 µM) injected into KFL constructs in the cell (30 or 50 µM), or FERM domains (500 µM) injected into CaM (50 µM)
6×His-FAK KFL_(776–841) [3] = biological target: B3; assay: fluorescence polarisation; fluorescence anisotropy; labelled 6×His protein at 50 nM, unlabelled MBP-fused protein serially diluted; 20 mM HEPES, 200 mM NaCl, 1 mM DTT, pH 6.5; details: both partners purified
6×His-FAK KFL_(776–841) [4] = biological target: T1, 6×His-FAK KFL_(776–841); assay: FP
FAK KFL 776-841 = biological target: T2, FAK KFL 776-841; assay: MST (self-association)
[5] = biological target: the molecule itself; assay: SEC-MALS; Superdex 200; 20 mM HEPES, 200 mM NaCl, 2 mM DTT, pH 6.5 and 7.5; DAWN MALS detector
[6] = biological target: the molecule itself; assay: MST; labelled 6×His protein at 50 nM, unlabelled protein serially diluted; 20 mM HEPES, 200 mM NaCl, 1 mM DTT, pH 6.5; dimer to monomers

stoichiometry N [1]: 1
stoichiometry N [2]: 1
Molecule: 6×His–CaM (recombinant calmodulin) (from UniProt P0DP23 1-149) (natural protein)

Molecule: B1
binding result (6×His-FAK KFL_(776–841) [3]): binds
Kd (6×His-FAK KFL_(776–841) [4]): 730 nM

Molecule: B2
Kd (FAK KFL 776-841): 848 nM

Molecule: B3
stoichiometry N [5]: 2
Kd [6]: ~800 nM
